Reference: the DeepSol protein solubility set

Assay: soluble on expression in E. coli; label from the status in PepcDB or PDB records
For “MGSDKIHHHHHHMRILFVTEYYPPIHMGGAEISLKILVNKLAKLGHEVTVITPNYTKYKTETEISKNLRVIRFKSWRYFLFKKQLRKISSEIYLRKKSSYYFQLNGYIKLSSFEIMKVVKELLQKEDFDVIHANNLESILGLSKLQVNTKVAHLRDFALLCWNRGLNNNGKLCEGCSLTNIRQCMGANYILGSALVHEINKRKNVLGKFDKILAISNFVKMEFVKRLNIPTEKISVLYNPITQEIVSNISKEEARQYLNLPEDKTIVLFVGTLTELKGAHLIPKIAKELPEHLFVVVGDGPLRKMFTEFPLENVLYVGYQPMEILRHYYKASDILLVPSLWHEPFGRVIIEGAANGCYVVGSDKGAIPEIIHWIGYGTSVPPQSKYFVEAIKNAPQTTKHEKLKIKIINYSHKYAEKFIKAIME”, the “soluble on expression in E. coli” value was “not soluble”. For “EITHRTKTRPVKVGPLTIGGNNEVVIQSMTTTKTHDVEATVAEINRLAEAGCQIVRVACPDERAANAIADIKKRISIPLVVDIHFDYKLALKAIEGGADKIRINPGNIGRREKVEAVVKAAKDKGIPI”, the “soluble on expression in E. coli” value was “not soluble”. In the case of “MLNKEIKGALIVSCQALADEPLHSSFIMSKMALAAKQGGAKGIRANSVVDIRAIRKEVDLPIIGIIKRDYPDAEVYITATMREVDELMAVQPEIIALDATHSKRPNGETLATFFKRIKEKYPNQEWMADCSTLEEMIEAAELGFDYIGTTLVGYTPQSENQRIEQNDFELLREAKKHFTTPIIAEGMIDTPAKVQRVLELGTYSVVVGSVITRPQKITEKFVEATKIKQNQA”, the “soluble on expression in E. coli” value was “not soluble”. In the case of “MPESYWEKVSGKNIPSSLDLYPIIHNYLQEDDEILDIGCGSGKISLELASLGYSVTGIDINSEAIRLAETAARSPGLNQKTGGKAEFKVENASSLSFHDSSFDFAVMQAFLTSVPDPKERSRIIKEVFRVLKPGAYLYLVEFGQNWHLKLYRKRYLHDFPITKEEGSFLARDPETGETEFIAHHFTEKELVFLLTDCRFEIDYFRVKELETRTGNKILGFVIIAQKLLEHHHHHH”, the “soluble on expression in E. coli” value was “soluble”. For “MEPRVTQRKRPLDGCMGKITGITSDILKYDHKCFKLSLPAKFPEVCGSDEVFPDPDLLHVLPVAGSLQQSIDQCCLQLESLCRPGLLCAHPTLLFKLHSSMKNRPFFSLIYTYVKKTQQVRKRDRKPRGQVAAGPNPTSVMLEHHHHHH”, the “soluble on expression in E. coli” value was “soluble”. For “MSSPARQYRGRSSEQRAAERRARLLEAGLQVFGTVGGEKATMTAICAEAKLTERYFYESFRDRDDLLVQVIEGIAAEIAEAARVTLQTVTGDPEVRARAAIATFVDILTADPRKGRVSIIESAAAEPLRTRRRELLRAFALLVAEESKELYGDRAWSSPQDEITALLFVGGLAELMTAWLNGEIEVSPEQIVDAATYQFTSTAHR”, the “soluble on expression in E. coli” value was “not soluble”. With “WSKIEKEQFYIAICAMNKTIAQKLFVLMKKAKKWLLQPDVRELKRFSIIDQKQLIYSYLIYHKINVNGEKIDAILDFIQPSQQKQYRLQNDIFLMVKNQCLALLYK” the “soluble on expression in E. coli” value was “soluble”. With “MPQNEHIELHRKRHGRRLDHEERQRKKLARAAHDRSQMAKTLRGHKAKLYHKKRYSEKVEMRKLLKQHEEKDQKNTVEQPDKGAVPAYLLDRQQQTSGTVLSNMIKQKRKQKAGKFNVPIPQVRAVSDAEAFKVVKTGKTNRKGWKRMVTKVTFVGESFTRKPAKFERFIRPMGLRFKKAHVTHPELQTTFHLPIVGVKKNPSSQMYTSLGVITKGTILEVNVSELGMVTQGGKVVWGKFAQVTNNPENDGCINAVLLI” the “soluble on expression in E. coli” value was “not soluble”. For “MAHHHHHHMGKKAEFARSRFKEVRQKREERMQRSRTERDRRHGIDKLERKIGKVVVQRPLPNEAQQALLLAQFAQACRLVAPSTDMCILMRHYAKVAEAAEQKSKSTTMVTTSAPSAKSTTRKRKRDEAEEEEEEAPAAGATFLDTVADALLQTQNAPAVIEEAAASAKDGENALDDDDDDDDTVTVLQDILQDDNGRRVVATLLASLNAVHSSKCEAVAKAVLEQFEENEHLPQHHVACRVMSALAQFGSDPTRQGVLNLLRQRSTTIEGVERLLSDRHTAGTIEQLLKSYSRETAAWLCEALSLSTPVTSPSAAEAGGKKKKAAKQRDAAAEETASGERITTEKLMELVNGPVSGQVLLQLLHTDARRELLKRLPIVELLRSKRGTTFLTQLLMSTASVASSKGDEGREAEAVALFSDVLERLGNDLGEMAIDKRANFVVQALIQLLPAMGPQSAKQLERLERGLGGAAGISALVAHGNGVHVVLSLIDAALTLSSESAVEGLAEQLVTRQNVTDLLYHKHGSLVVRRLMPLISRKASKVGRLLQGMVEQDFSNLVYTEAGNLVVTAYLTALGKSGASLLAQKLAGGEELLSMCRSPYASHVVFTLFELVDPITHTLLCNALKAHVLPLSIHVNGRFIVEKMIAASRDVRESVSRQFLSLAQERGTQHVLCALLARMDARGKQACVEKTIMPNLTALATHQCGSIVLQKLMQAEPTVLSAVRQRLSANSLVRSDLAQNFFGKFVVQIAQQPEQEQPQ”, the “soluble on expression in E. coli” value was “soluble”. With “MSLDVFVLDTSVFTNPEIYRTFEEDQRGAMETFIHLALNSRAEFYMPTSVYTEMRKIMDVGELWAEFEMVVKIRSPRRFQLTVPADFLYEFIEELRYRINKGLRIAEEHTREASGCEDVGKLIARLREKYREALRQGILDSKEDVDVLLLAYELDGVLVSADEGLRTWADKIGIKLIDPKNFKNILESLVRHRFEGHHHHHH” the “soluble on expression in E. coli” value was “soluble”. With “MGSDKIHHHHHHMIYDMSGIYLSSLTGIRNNSSSSSNSLDKEAFLRLLLQELEMQDPLEPMETKDMISQLSQLTSLEQITNLTSAVKDFVEAQTSVSPAQLASLIGKYVVVRNNTVNLVGGQSDSIIFNVDEDAHVVVQILDENGKLVRTEDLGTVQVGVHAWQWDGRDDNGISVEDGSYTYRVYKLTSSGLEEIGGMEGGVVEAVQIKDGKGFVLVNGSLYPVDSILEISQEGDA” the “soluble on expression in E. coli” value was “not soluble”. In the case of “MLIKVKTLTGKEIELDIEPNDRVERIKEKVEEKEGIPPPQQRLIFAGKQMNDDKTAADYKVLGGSVLHLVLALRGGF”, the “soluble on expression in E. coli” value was “not soluble”. In the case of “MDTSLIRELAELALAGSGQHCHEEALCIAEWLERLGQDEAARLIRISSLANQGRYQEALAFAHGNPWPALEPWFALCEWHLGLGAALDRRLAGLGGSSDPALADFAAGMRAQVRT”, the “soluble on expression in E. coli” value was “soluble”. For “PHDFPHFDKERYARTTRKVIARMNQELASHEQIKGVLMIKEPWSIENGVLTPTLKIKRHVLEQKYHELGHNWPKDELVLWEEDL”, the “soluble on expression in E. coli” value was “not soluble”. For “MGSDKIHHHHHHMKFCIIGYPVRHSISPRLYNEYFKRAGMNHSYGMEEIPPESFDTEIRRILEEYDGFNATIPHKERVMRYVEPSEDAQRIKAVNCVFRGKGYNTDWVGVVKSLEGVEVKEPVVVVGAGGAARAVIYALLQMGVKDIWVVNRTIERAKALDFPVKIFSLDQLDEVVKKAKSLFNTTSVGMKGEELPVSDDSLKNLSLVYDVIYFDTPLVVKARKLGVKHIIKGNLMFYYQAMENLKIWGIYDEEVFKEVFGEVLK”, the “soluble on expression in E. coli” value was “not soluble”. With “MLNQPRLDEIMRLLAQQQRVKASDLAQLLFVSEETIRRDFKHLEEEGRLRRIHGGAILPRSSEELPLQERSRLKPRAKAGIATCAAQLVTEGMAIFLDTGTSTLALAQQLTRFSQLKIITNSLDIAQLISHQSDNQVLVAPGDVRRTDNALIGPHTLEFARQFHYDIAFMGIGGIDLDLGLMDYQEPEAMLRRTLVRHCARSVVLADDGKFGHRTFINTLPFAAITTLVTNRPLSDEFATRLEKDHVDTLYP” the “soluble on expression in E. coli” value was “not soluble”. In the case of “MIKILDASAFIHGYNPSIEDGEHYTTNGIVSEVVSKEDIVKLAIEYGKLKILDPKPETIEKVVKTSIETGDTISNNDIEILALAIDLGGTLYTDDYGLQNVSKKLKINYENIVSAGSKDDFVWKKICKGCKKMYPINYLDEECEVCGSPLYRKMVKNRLKKGKKFYDKKKKPKKLFLEHHHHHH”, the “soluble on expression in E. coli” value was “soluble”. In the case of “RHAIAETLSQEIKQELKDLYMDKADFKVVFTKGKFNREGNETVAFHISTNPGEDFKPLVKVASGGELSRLMLAIKSAFSRREDKTSIVFDEVDTGVSGRVAQAIAQKIYKIGNHGQVLAISHIPQVIAISDYQYFIEKQSSKATTVSTVRLLNQEERIEEIAKML”, the “soluble on expression in E. coli” value was “not soluble”. With “MAHHHHHHMQSSALRPSSLLRAYHYVHPKTGRPIRQYRKYGDPRFINNEVALIKGLFALITTDFGMVTQSQLENARLAILRRMPRGSFALTMHTDYEEFPVVQKSPESRMGAGKSNIHHFAYKFTTGVPLFEITALSSRRLNQAEAEGIFLAGRSFIPLQTAVVPRGRVDEYHVFK” the “soluble on expression in E. coli” value was “soluble”. In the case of “MSLITVNTLQKMKAAGEKIAMLTAYESSFAALMDDAGVEMLLVGDSLGMAVQGRKSTLPVSLRDMCYHTECVARGAKNAMIVSDLPFGAYQQSKEQAFAAAAELMAAGAHMVKLEGGVWMAETTEFLQMRGIPVCAHIGLTPQSVFAFGGYKVQGRGGKAQALLNDAKAHDDAGAAVVLMECVLAELAKKVTETVSCPTIGIGAGADCDGQVLVMHDMLGIFPGKTAKFVKNFMQGHDSVQAAVRAYVAEVKAKTFPAAEHIFADEGGSHHHHHH”, the “soluble on expression in E. coli” value was “soluble”. For “MAHHHHHHMRNSKEGNLIVHDLDFMKRILLNDERKWGEESAPGEGRTESSHQPKIITIVLNNTLCAHSAKFIANSDVLICADGGANRLYNLCQSLATERGAIDDEGSSLKGEEDKNTALHASHTNERSHHVSGRHTISDLFNMPVEKKEKALKRPTEIVPHIICGDFDSINAHVYSYYKNKSVIFEKCANQENTDLDKCIDVIRGYIRTNDKILILGATGNRFDHTCANISCLYKNASLNSLYLIGENNFLFLLQQGSHIIHVSPDVFCKGCGILPFGGKCTIKTEGLKYNLNDECLSFDTLISSSNEVVQREVKIFNDSPVVWSAQLRGDAQSHTHS”, the “soluble on expression in E. coli” value was “soluble”. For “MGSDKIHHHHHHMVEVLTESNQSLDSLEALCSKYRIERGIVATVVDLNERILAELAALPFPLLWLNHETPLPVGNLYETPETLGYDRIAAVVGANEQFPHNDILVIDAGTCITYEFIDSKGQYHGGNISPGMQMRYKALHQFTGRLPLIDSNGRKLPMGRDTETAIRAGVLKGMEYEISGYIEAMKHKYPELLVFLTGGDDFSFDSSVKSAIFADRFLVLKGLNRILNYNNGRI”, the “soluble on expression in E. coli” value was “not soluble”. For “MAHHHHHHMQPRHFHVCNFLLTCSCERGHPRVRCLRFAALRFAKPHFALLCRTSLCFFFATPTRAELATDGLKGRIYEVNLADLNNDEDQAHKKIKLCCDHIINKDCYTDFCGLSITRDKLCSLIRKGYTLIEGYTDVKTIDNYQLRMFCIAFTKKRPNQTKTTCYAQTSQIKKIRKKMVDIMNAEASKVMLKDLVKKFIPESIGKEVEKQCKKIYPLQNVLIRKVKILKRPKLDISKLMELHTDSKEDAGKNVKSLPESKEATNILSAELKH”, the “soluble on expression in E. coli” value was “soluble”. In the case of “MSLSKVFTIGEILVEIMASKIGQPFDQPGIWNGPYPSGAPAIFIDQVTRLGVPCGIISCVGNDGFGDINIHRLAADGVDIRGISVLPLEATGSAFVTYHNSGDRDFIFNIKNAACGKLSAQHVDENILKDCTHFHIMGSSLFSFHMVDAVKKAVTIVKANGGVISFDPNIRKEMLDIPEMRDALHFVLELTDIYMPSEGEVLLLSPHSTPERAIAGFLEEGVKEVIVKRGNQGASYYSANEQFHVESYPVEEVDPTGAGDCFGGAWIACRQLGFDAHRALQYANACGALAVTRRGPMEGTSRLMEIETFIQRHDMSIREAAQEGHHHHHH”, the “soluble on expression in E. coli” value was “soluble”. With “MSLSQSALSELLEAFRAGDGVDLICESVRVALQDLIQLEASERIGAAPYERTDARVSERNGHRPRVLTTKAGDVELRIPKLRKGSFFPVILEPRRRIDQALYAVVMEAYVHGVSTRSVDDLVEAMGVDAGISKSEVSRICAGLDEQVGAFRTRALDHTEFPYVYLDATYLNVRNTTGQVTSMAVVVATGIAADGSREVLGLDVGDSEDETFWRGFLTALKQRGLHGVQLVISDQHAGLVKALRRSFQGAGHQRCRVHFARNLLAHVPKSHGDMVAAVFRTIFAQPDAAAVSHAWDEVRDQLAKSFPKIGPLMDEAKAEVTAFTVFPRAHWQKIWSTNPLERSTRRSSDAPGWSGSEGHHHHHH” the “soluble on expression in E. coli” value was “soluble”.
